Results on 16 molecules are retold here after article PMC11417369, “DNA sequence and chromatin differentiate sequence-specific transcription factor binding in the human malaria parasite Plasmodium falciparum”.

Holding throughout (test): gcPBM; about 25 ug protein; PBS, 1% milk, 0.2 mg/ml BSA, salmon testes DNA, 0.03% Triton X-100
One data set deals with T1, SIP2 D1 (Plasmodium falciparum, UniProt C6KSN9 177-235).
T1 sequence: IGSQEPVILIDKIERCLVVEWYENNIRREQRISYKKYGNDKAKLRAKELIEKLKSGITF
To be noted: tags: N-terminal GST (pGEX-4T-1), kept; label: surface-attached array probe.

A further data set addresses T2, HDP1 homeodomain-like (Plasmodium falciparum, UniProt Q8IKH4 2990-3078).
T2 sequence: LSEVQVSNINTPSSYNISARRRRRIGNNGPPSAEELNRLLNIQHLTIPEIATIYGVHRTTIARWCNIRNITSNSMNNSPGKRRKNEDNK
The following applies: tags: N-terminal GST (pGEX-4T-1), kept; chain copies: 2; label: surface-attached array probe.

The next data set concerns the target AP2-I D3 (Plasmodium falciparum, UniProt Q8IJW6 910-1027). The following applies: tags: N-terminal GST (pGEX-4T-1), kept; label: surface-attached array probe.

B1: GTGCAC_site10459 (dsDNA)
DNA 1: TTATAAATGTGCGTAGTGCATAAACAAAAAAAAAAT
DNA 2: ATTTTTTTTTTGTTTATGCACTACGCACATTTATAA
With B1, the binding signal with SIP2 D1 was 8.72 ln median PBM intensity, better of two orientations; with HDP1 homeodomain-like, 10.2 ln median PBM intensity, better of two orientations; with AP2-I D3, 11.5 ln median PBM intensity, better of two orientations.

B2: GTGCAC_negctrl_site633 (dsDNA)
DNA 1: AAAAAAATAAAAAATATATAAATAATTAATACATGT
DNA 2: ACATGTATTAATTATTTATATATTTTTTATTTTTTT
In the case of B2, the binding signal in the data set with HDP1 homeodomain-like was 6.32 ln median PBM intensity, better of two orientations; in the data set with AP2-I D3 it was 7.14 ln median PBM intensity, better of two orientations.

B3: GTGCAC_negctrl_site27 (dsDNA)
DNA 1: ACATATGTATGAATATCAAAAAATCCCTATTTAATG
DNA 2: CATTAAATAGGGATTTTTTGATATTCATACATATGT
With B3, the binding signal was 6.3 ln median PBM intensity, better of two orientations with HDP1 homeodomain-like and 6.97 ln median PBM intensity, better of two orientations with AP2-I D3.

B4: GTGCAC_negctrl_site177 (dsDNA)
DNA 1: TCACAAAAAGAACATTGATATTATTATAAAATCGTC
DNA 2: GACGATTTTATAATAATATCAATGTTCTTTTTGTGA
For the molecule B4, the binding signal with HDP1 homeodomain-like is 6.14 ln median PBM intensity, better of two orientations; with AP2-I D3, 7 ln median PBM intensity, better of two orientations.

B5: GTGCAC_negctrl_site285 (dsDNA)
DNA 1: AAAATATTATTACAGAAACAAAAAGAAAAATATATA
DNA 2: TATATATTTTTCTTTTTGTTTCTGTAATAATATTTT
In the case of B5, the binding signal in the data set with SIP2 D1 is 6.76 ln median PBM intensity, better of two orientations; with HDP1 homeodomain-like, 6.37 ln median PBM intensity, better of two orientations; with AP2-I D3, 7.1 ln median PBM intensity, better of two orientations.

B6: GTGCAC_negctrl_site245 (dsDNA)
DNA 1: TTTTATATCTAGTTTATATTTCTTAAATAAATAAAT
DNA 2: ATTTATTTATTTAAGAAATATAAACTAGATATAAAA
As for B6, the binding signal in the data set with HDP1 homeodomain-like is 6.07 ln median PBM intensity, better of two orientations; with AP2-I D3, 7.05 ln median PBM intensity, better of two orientations.

B7: GTGCAC_negctrl_site715 (dsDNA)
DNA 1: TTTTTTCTTTTATGTGAAATGTAATATTGTTATATA
DNA 2: TATATAACAATATTACATTTCACATAAAAGAAAAAA
As for B7, the binding signal was 6.24 ln median PBM intensity, better of two orientations with HDP1 homeodomain-like and 7.2 ln median PBM intensity, better of two orientations with AP2-I D3.

B8: GTGCAC_negctrl_site342 (dsDNA)
DNA 1: TATTTATATAATCCTATAATATTACTACTATCTTTA
DNA 2: TAAAGATAGTAGTAATATTATAGGATTATATAAATA
Regarding B8, the binding signal was 6.28 ln median PBM intensity, better of two orientations with HDP1 homeodomain-like and 6.86 ln median PBM intensity, better of two orientations with AP2-I D3.

B9: GTGCAC_negctrl_site519 (dsDNA)
DNA 1: AAAATACATATATATATATATAATATTGTTGTTAAA
DNA 2: TTTAACAACAATATTATATATATATATATGTATTTT
For the molecule B9, the binding signal in the data set with HDP1 homeodomain-like was 6.31 ln median PBM intensity, better of two orientations; with AP2-I D3, 7.2 ln median PBM intensity, better of two orientations.

B10: GTGCAC_negctrl_site641 (dsDNA)
DNA 1: TTTTCTTGACCTATTATTCTTCTCATAGTATAATAT
DNA 2: ATATTATACTATGAGAAGAATAATAGGTCAAGAAAA
B10: the binding signal with HDP1 homeodomain-like was 6.18 ln median PBM intensity, better of two orientations; in the data set with AP2-I D3, 7.08 ln median PBM intensity, better of two orientations.

B11: GTGCAC_negctrl_site257 (dsDNA)
DNA 1: TGCAAAAAAAAAAAAAAAAAATATATGGAAATATAT
DNA 2: ATATATTTCCATATATTTTTTTTTTTTTTTTTTGCA
On to B11, for which the binding signal with HDP1 homeodomain-like is 6.13 ln median PBM intensity, better of two orientations; with AP2-I D3 it was 6.92 ln median PBM intensity, better of two orientations.

B12: GTGCAC_negctrl_site475 (dsDNA)
DNA 1: AGAAATAATATTATTCAAGTATTTATTTAATTTTCA
DNA 2: TGAAAATTAAATAAATACTTGAATAATATTATTTCT
Consider B12, for which the binding signal in the data set with SIP2 D1 is 6.53 ln median PBM intensity, better of two orientations; with HDP1 homeodomain-like it was 5.92 ln median PBM intensity, better of two orientations; with AP2-I D3, 6.75 ln median PBM intensity, better of two orientations.

B13: GTGCAC_negctrl_site667 (dsDNA)
DNA 1: GTAAGAATATTTATAAATGTATAATTTGTATTATTT
DNA 2: AAATAATACAAATTATACATTTATAAATATTCTTAC
On to B13, for which the binding signal is 6.8 ln median PBM intensity, better of two orientations with SIP2 D1; 6.29 ln median PBM intensity, better of two orientations with HDP1 homeodomain-like; 7.22 ln median PBM intensity, better of two orientations with AP2-I D3.

B14: GTGCAC_negctrl_site321 (dsDNA)
DNA 1: ACAAAAAATTAATGAGAAATGGAATAATAAGTTATA
DNA 2: TATAACTTATTATTCCATTTCTCATTAATTTTTTGT
On to B14, for which the binding signal with SIP2 D1 was 6.83 ln median PBM intensity, better of two orientations; with HDP1 homeodomain-like, 6.32 ln median PBM intensity, better of two orientations; with AP2-I D3, 7.2 ln median PBM intensity, better of two orientations.

B15: GTGCAC_negctrl_site189 (dsDNA)
DNA 1: AACAAATATGATTTTTTATATATTTTTAAATTTGGT
DNA 2: ACCAAATTTAAAAATATATAAAAAATCATATTTGTT
As for B15, the binding signal was 6.75 ln median PBM intensity, better of two orientations with SIP2 D1; 5.9 ln median PBM intensity, better of two orientations with HDP1 homeodomain-like; 7.09 ln median PBM intensity, better of two orientations in the data set with AP2-I D3.

B16: GTGCAC_negctrl_site13 (dsDNA)
DNA 1: AAAAAAAAAAATATATTAAAATAAAAAATATTAACA
DNA 2: TGTTAATATTTTTTATTTTAATATATTTTTTTTTTT
For the molecule B16, the binding signal with HDP1 homeodomain-like was 6.05 ln median PBM intensity, better of two orientations; in the data set with AP2-I D3, 6.95 ln median PBM intensity, better of two orientations.
